One block for each substance: values may come before it.
Experiments:
[1] = target: IGF-I receptor of Mv1Lu cells (mink); experiment: cell-based or functional assay
[2] = target: acidic pH binding sites of Mv1Lu cells; experiment: inhibition of 125I-α2M* binding to Mv1Lu cells at pH 5 or 6
[3] = target: LRP-1 in mouse embryonic fibroblasts (MEF cells) (mouse) (UniProt Q91ZX7); experiment: co-immunoprecipitation with anti-annexin VI IgG from lysates of MEF cells carrying cell surface-bound 125I-α2M* (1 nM, pH 7.4)
LRP-1 in mouse embryonic fibroblasts (MEF cells) (mouse), sequence (Q91ZX7 20-4545): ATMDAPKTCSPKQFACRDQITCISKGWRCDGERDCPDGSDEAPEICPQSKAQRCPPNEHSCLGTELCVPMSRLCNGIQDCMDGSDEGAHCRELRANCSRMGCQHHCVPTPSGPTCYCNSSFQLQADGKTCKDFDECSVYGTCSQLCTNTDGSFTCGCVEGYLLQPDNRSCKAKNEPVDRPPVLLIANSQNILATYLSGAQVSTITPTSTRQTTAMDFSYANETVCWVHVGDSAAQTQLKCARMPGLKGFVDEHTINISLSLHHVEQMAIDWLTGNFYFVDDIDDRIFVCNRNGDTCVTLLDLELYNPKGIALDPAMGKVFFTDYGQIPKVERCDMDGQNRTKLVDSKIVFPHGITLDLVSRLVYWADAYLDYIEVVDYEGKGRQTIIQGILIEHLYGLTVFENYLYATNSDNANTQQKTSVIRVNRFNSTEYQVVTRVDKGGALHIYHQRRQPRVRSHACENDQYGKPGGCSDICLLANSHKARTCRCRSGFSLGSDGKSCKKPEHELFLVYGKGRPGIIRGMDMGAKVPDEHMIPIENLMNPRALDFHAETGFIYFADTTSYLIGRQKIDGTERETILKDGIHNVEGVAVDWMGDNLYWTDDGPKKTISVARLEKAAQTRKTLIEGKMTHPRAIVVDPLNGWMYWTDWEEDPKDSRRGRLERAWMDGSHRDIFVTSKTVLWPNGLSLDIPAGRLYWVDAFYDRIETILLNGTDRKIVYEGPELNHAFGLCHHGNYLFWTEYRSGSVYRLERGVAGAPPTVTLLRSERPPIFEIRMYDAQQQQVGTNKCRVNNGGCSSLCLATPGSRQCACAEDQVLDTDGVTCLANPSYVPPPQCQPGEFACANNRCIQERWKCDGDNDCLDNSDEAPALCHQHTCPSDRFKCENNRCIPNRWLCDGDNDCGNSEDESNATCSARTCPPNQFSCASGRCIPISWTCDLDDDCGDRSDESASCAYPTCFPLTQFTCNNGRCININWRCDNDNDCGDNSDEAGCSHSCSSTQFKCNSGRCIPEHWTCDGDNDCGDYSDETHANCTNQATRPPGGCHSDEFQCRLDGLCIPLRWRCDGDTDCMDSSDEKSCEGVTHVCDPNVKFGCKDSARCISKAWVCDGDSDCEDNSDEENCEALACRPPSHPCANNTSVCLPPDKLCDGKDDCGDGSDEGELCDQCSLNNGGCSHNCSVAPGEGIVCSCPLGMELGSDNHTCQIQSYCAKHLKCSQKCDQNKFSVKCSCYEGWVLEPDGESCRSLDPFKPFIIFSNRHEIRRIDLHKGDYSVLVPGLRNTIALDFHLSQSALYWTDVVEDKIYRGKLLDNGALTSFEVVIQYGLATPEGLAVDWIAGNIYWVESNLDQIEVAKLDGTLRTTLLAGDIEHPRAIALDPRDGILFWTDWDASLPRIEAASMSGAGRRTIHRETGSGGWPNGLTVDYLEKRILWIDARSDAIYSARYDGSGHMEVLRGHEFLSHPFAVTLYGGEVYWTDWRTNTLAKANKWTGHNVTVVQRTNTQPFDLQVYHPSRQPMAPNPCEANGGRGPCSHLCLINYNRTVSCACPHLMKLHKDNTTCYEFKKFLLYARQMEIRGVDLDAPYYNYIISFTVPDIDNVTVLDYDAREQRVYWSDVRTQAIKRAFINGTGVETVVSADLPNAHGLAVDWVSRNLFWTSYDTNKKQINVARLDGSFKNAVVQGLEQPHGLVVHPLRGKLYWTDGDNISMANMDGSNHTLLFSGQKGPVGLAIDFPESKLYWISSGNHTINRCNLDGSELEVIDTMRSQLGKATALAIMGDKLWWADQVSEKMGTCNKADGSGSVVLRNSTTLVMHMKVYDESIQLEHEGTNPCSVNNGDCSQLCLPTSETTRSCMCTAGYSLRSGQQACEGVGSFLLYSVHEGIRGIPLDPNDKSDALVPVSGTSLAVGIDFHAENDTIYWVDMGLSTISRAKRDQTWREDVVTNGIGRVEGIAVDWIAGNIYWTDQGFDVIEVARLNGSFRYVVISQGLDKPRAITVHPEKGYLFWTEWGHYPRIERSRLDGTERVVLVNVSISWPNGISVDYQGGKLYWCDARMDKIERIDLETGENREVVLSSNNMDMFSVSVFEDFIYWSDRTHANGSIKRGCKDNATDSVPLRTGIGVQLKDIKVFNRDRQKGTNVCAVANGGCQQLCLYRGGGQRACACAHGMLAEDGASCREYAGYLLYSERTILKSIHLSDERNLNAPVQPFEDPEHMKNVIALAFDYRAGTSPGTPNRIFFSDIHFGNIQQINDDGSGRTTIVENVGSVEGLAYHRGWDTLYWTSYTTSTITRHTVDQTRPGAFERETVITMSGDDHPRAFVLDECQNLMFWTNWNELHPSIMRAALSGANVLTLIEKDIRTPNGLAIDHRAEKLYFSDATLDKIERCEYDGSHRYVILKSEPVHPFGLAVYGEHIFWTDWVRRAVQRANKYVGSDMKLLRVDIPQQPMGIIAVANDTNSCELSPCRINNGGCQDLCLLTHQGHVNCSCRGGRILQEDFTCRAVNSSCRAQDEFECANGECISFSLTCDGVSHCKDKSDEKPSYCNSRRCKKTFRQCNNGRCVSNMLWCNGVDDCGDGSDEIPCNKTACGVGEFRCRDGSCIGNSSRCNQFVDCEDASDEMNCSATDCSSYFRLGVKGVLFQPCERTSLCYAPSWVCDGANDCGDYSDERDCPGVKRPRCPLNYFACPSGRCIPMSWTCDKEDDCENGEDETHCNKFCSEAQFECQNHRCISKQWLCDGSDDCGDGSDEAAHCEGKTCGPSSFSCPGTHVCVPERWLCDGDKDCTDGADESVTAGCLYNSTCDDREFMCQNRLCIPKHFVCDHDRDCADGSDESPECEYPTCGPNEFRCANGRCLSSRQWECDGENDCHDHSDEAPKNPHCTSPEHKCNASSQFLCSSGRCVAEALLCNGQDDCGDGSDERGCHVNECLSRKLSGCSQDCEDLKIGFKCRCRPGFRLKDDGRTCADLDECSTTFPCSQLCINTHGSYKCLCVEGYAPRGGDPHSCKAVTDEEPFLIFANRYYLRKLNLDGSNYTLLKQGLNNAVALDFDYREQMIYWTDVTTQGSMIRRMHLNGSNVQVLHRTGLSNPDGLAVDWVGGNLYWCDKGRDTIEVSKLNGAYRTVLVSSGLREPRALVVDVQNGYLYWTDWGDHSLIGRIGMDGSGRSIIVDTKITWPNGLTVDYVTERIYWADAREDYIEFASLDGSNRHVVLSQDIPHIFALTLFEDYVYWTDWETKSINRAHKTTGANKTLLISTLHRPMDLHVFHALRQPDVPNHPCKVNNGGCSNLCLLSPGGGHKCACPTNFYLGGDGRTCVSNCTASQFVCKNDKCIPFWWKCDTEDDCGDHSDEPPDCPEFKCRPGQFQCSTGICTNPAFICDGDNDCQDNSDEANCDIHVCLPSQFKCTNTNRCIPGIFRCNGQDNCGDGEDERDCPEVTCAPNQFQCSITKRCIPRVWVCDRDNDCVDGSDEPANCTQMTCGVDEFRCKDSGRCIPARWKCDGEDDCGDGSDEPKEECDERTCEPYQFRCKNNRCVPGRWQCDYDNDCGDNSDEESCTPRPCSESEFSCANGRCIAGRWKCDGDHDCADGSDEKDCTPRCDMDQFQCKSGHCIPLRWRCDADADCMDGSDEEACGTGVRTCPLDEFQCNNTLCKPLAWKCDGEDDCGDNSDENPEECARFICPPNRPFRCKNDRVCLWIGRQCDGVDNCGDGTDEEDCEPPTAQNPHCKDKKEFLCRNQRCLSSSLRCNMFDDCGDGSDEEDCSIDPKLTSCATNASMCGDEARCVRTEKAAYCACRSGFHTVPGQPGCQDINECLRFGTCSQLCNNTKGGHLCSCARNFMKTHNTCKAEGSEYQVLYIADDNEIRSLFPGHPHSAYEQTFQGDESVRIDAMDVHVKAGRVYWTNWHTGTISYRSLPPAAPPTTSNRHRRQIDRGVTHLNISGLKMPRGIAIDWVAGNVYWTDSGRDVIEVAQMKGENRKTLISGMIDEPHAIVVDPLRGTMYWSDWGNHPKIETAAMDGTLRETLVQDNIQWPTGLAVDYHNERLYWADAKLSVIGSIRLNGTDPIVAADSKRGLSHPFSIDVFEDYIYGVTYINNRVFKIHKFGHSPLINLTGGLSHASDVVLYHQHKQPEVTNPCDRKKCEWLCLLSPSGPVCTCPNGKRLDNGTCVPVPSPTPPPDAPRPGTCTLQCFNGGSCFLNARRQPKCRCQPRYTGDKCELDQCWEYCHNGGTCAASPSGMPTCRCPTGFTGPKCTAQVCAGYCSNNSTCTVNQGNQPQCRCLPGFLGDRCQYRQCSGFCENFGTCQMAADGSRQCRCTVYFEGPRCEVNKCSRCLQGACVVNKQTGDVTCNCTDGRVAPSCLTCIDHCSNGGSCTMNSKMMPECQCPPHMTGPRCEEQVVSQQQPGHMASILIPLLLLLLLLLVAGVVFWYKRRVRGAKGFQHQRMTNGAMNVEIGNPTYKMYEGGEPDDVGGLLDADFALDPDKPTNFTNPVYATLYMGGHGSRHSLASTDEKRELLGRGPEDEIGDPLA

[4] = target: acidic pH binding sites of Mv1Lu cells; experiment: inhibition of 125I-α2M* binding to Mv1Lu cells at pH 6
[5] = target: TβR-V/LRP-1 in mink lung epithelial cells (Mv1Lu cells) (mink); experiment: inhibition of 10 nM 125I-IGFBP-3 affinity labeling (binding and DSS cross-linking) of TβR-V on Mv1Lu cells
[6] = target: insulin receptor of Mv1Lu cells (mink); experiment: cell-based or functional assay
[7] = target: acidic pH binding sites of MEF cells; experiment: competition with 125I-α2M* binding to MEF cells at pH 5.5

Substance: bovine lactoferrin (from UniProt P24627 20-708) (ligand)
IC50 [2]: 0.05 µM

Substance: cell surface annexin VI of mouse embryonic fibroblasts (MEF and PEA-13 cells) (from UniProt P14824 2-673) (receptor)
percent of LRP-1-bound 125I-α2M* co-immunoprecipitated by anti-annexin VI IgG [3]: 40%

Substance: human transferrin (from UniProt P02787 20-698) (ligand)
IC50 [2]: 0.5 µM

Substance: insulin (ligand)
ED50 for blocking IGFBP-3-induced inhibition of DNA synthesis in Mv1Lu cells [6]: 0.001 µM

Substance: native α2M (human) (from UniProt P01023 24-1474) (ligand)
IC50 [7]: 0.15 µM

Results, then the substance that gave them:

ED50 for blocking IGFBP-3-induced growth inhibition in Mv1Lu cells [1]: 0.0003 µM
Substance: (Q^3A^4Y^15L^16) IGF-I (from UniProt P05019 49-118) (ligand)

IC50 [4]: 5 µg/mL
Substance: human low density lipoprotein (LDL) (from UniProt P04114 28-4563)

IC50 [5]: 5 µg/mL
Substance: human receptor-associated protein (RAP) (from UniProt P30533 35-357) (ligand)
